Laboratory results: the supplement of paper PMC9170038

Tested on: K4 kissing-loop RNA reporter
Assay: apparent KD of K4 kissing-loop reporter; higher = weaker reporter binding
Conditions: Eterna round: R107
Experimental: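 RNA-MaP round R107: designed RNA switches with theophylline, tryptophan, arginine or FMN aptamers are transcribed on-chip within common flanks. They are titrated with a labelled K4 kissing-loop RNA reporter in RNA-MaP buffer (100 mM Tris pH 7.5, 80 mM KCl, 4 mM MgCl2), without ligand or with the indicated ligand. Median apparent KD per design.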

[1] = input ligand: theophylline 20 uM
[2] = input ligand: tryptophan 2.4 mM
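Also: bound reporter read as fluorescence of individual clusters on recovered sequencing chips by microscopy, with normalized cluster intensities fitted with a binding model.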

Row | Sequence | apparent KD of K4 kissing-loop reporter (input ligand: FMN 200 uM) [nM] | apparent KD of K4 kissing-loop reporter (input ligand: arginine 13.2 mM) [nM] | apparent KD of K4 kissing-loop reporter (input ligand: none) [nM] | apparent KD of K4 kissing-loop reporter [1] [nM] | apparent KD of K4 kissing-loop reporter [2] [nM]
1 | CGCAAUCGAACUGAUACCAGUCAUAAUGGCUGAGAAGCACGAGUGAUGUUCGUAACGAAUGACCCUUGGCAGCAGUUCGAUUGCG [Theo B SS t8] | 706 | 807 | 944 | 330 | 839
2 | AAUCGCAGUGAUGUUGCGAUUCCGUUGAGGGAGGAUAUUGGUAAUACAAGAAGGUUCGGUUACGGGAGAUGUUAGUAAUAGGGCC [Exclusion FMN A GF21] | 46.2 | 41.3 | 61.8 | – | 85.2
3 | GAAGGUCAAAGACCUUCGUGCACACCUGAUACCAGUCGCGAAAGCGACCCUUGGCAGCAGGGCAGUGAUGUUGCCAGUGCACAAA [Omei KL Theo A SS A v5] | 194 | 176 | 191 | 164 | 159
4 | AUUUAGACGAGUGAUGUUCGUGUUAUUACAGAGGAUAUGCGUAAUUGCAGAAGGCUGUAUUUAUAUAUGUUAUGUAGUUUUAAAA [whbob_Ex_FMNA__2th184] | 87.3 | 108 | 84.8 | 94.8 | 74.1
5 | GUAUCGCUAGGAGGAUAUUUCAAUUCGCCUAUAAUAGGUGAUACGGAGUGAUGUUCCGAUUUACGGAAAGAAGGCCUAGUGAUAC [FMN B 10] | 144 | 229 | 244 | 239 | 237
6 | UAGUCCUAGUGAUGGUUAUCACGUGGUGGGCGAGGACCGGUACGGCCGCCACUCGACUUUGCAGUGAUGUUGCAAACCGGACAAU [Exclusion - Tryptophan A (Freestyle 18)] | 228 | 278 | 237 | 287 | 237
7 | GGUAGCAUGGCGGCCGCCACUAUAAAGAAUCCAAAGGAUUCUAGGUAGUGAUGUUACCAUAGCUAUAGGACCGGGCCAUGCUACC | 156 | 120 | 174 | 121 | 56.5
8 | UUGGCCCGGCCGGAAGGCCGGGCCUGCGAGCGAGGACCGGUACGGCCGCCACUCGGCGCAGUGAUGUUGCGUGGCCGCAAGGCCG [#2 Exclusion - Tryptophan A Attempt #1 (HarryS)] | 370 | 337 | 439 | 581 | 874
9 | GAGGUACAGGCGGCCGCCACUAGUGAUGUUAGUGAUAAAAGAUAUAGUAAAUAUCGGCAUGUAGAUAGGACCGGGCCUGAUGGAG [ptvcmullin] | 234 | 214 | 234 | 234 | 209
10 | GAUGUCUAGAGAUCAUCUAGACACCUAGAUACCAGCAGAUAUAUCUGCCCUUGGCAGCUAGAACCAGUGAUGUUGGUAUAUGCUC [Theo A SS t3] | 259 | 256 | 307 | 360 | 229
11 | CCAGGUUGCCGCAACGACCUGGAUUUUAGGGAGGAUAUCCAGAGCAGGAGAAGGCCCAGUGAUGUUGGGCCUGUGGAGCCCAUAU [Ararensoza] | 274 | 149 | 176 | 120 | 151
12 | ACUUAGAAUGAAGGAUAUUGGUUACGAGGGCUAACCAAAACGGAUCACUUGUCCAGUGAUGUUGUCCAAGAAGGUCACGUUAAAC [theeternabot_exclusion_KL_FMN_B_44] | 776 | 665 | 868 | 492 | 576
13 | ACACUAUCGUCAUAGACGGUAGUGAAAGCUCAGGAUAUGAGUGAUGUUAGAAGGGAGUAAAUCUUAGGUAUCGAAUAGAUACCAA [FmnA 7 #K4BetweenAptamer #OpenEnded] | 1220 | 364 | 508 | 287 | 416
14 | UGACUGGACUGAAGGAGCGAGGACGGUCAUAGACCGAAAUCAGUGAUGUUGAAAGAUAAACCUCAGGUAGGUCGCAGUCUAGUCU [ArgBS 1 #SwitchBubble #StaticStem] | 1070 | 918 | 790 | 546 | 1230
15 | AACAGCAAUGCGGCCGCCACUUCGAGGUCAGUGAUGUUGACGGAAUUAAAUAAAGAUCCCAAGAGGAGGACCGGGCAGUGCUGUU [whbob_SS_Tryp_B_t25] | 468 | 465 | 499 | 410 | 289
16 | CCCUCACGAGUGAUGUUCGUAGGGUACAGUCAGGAUAUCAUGCGGUUGAGAAGGGACAGAAAGGGCGGCCACGGGUUGCUCAUUU [Issogeso] | 200 | 352 | 343 | 492 | 530
17 | ACGUAUAUCAGAGGAUAUCGUAUUAAUAUUUUAUCUAUCUAUAUAUGCAGUGAUGUUGCAAUAAUUCGAGAAGGCUGAUUUACGA [JR_ExcFMNB_Sub010] | 112 | 124 | 91.6 | 133 | 87.3
18 | AAAUGCAGCAAACGAGUGAUGUUCGACGAUACCAGCCUCGAUAGAGGCCCUUGGCAGCGUACAUCAAAGCCAAGGGCUGCUAAAA [#SwitchBubble 3] | 483 | 463 | 552 | 499 | 454
19 | UAUACUAGACAAGAGAGAAUUCUCUCAAGAGAGGAUAUCCGAAUUCGGAGAAGGCUCUCUCAGUGAUGUUGGGUAUAGUCUAGAA [AK7 SS FMN A] | 260 | 222 | 323 | 389 | 299
20 | GUGAAGGAGCAGCAGUGAUGUUGCUGAGACUAGGAUAUCAGGAAACUGAGAAGGAGUCAACUCCUUCACCUAGACUGCAACAUAA [KL-SSFMN-A13] | 173 | 167 | 180 | 249 | 152
21 | CGCCGUAAGGCGAGCGCUCCCACUCCGGAAGGAGCGCCCGGAAGGGCAGGUAGGUCGCCGGAGUGAUGUUCCGGUGGAGGGCUCG [#2 Exclusion - Arginine A Attempt #12 (Inspired by Omei)] | 229 | 144 | 282 | 221 | 317
22 | AAGGUAUCACCAACUUGCAACAAAGGUGAUACCAGCAUCGAAAGAUGCCCUUGGCAGCACCAACUUGCAGUGAUGUUGCAAGUAA [(T)'-(H)'-(T1)-(T2)-(H1)-(H2)_Design10] | 170 | 161 | 159 | 186 | 170

Row | Sequence | apparent KD of K4 kissing-loop reporter (input ligand: FMN 200 uM) [nM] | apparent KD of K4 kissing-loop reporter (input ligand: arginine 13.2 mM) [nM] | apparent KD of K4 kissing-loop reporter (input ligand: none) [nM] | apparent KD of K4 kissing-loop reporter [1] [nM] | apparent KD of K4 kissing-loop reporter [2] [nM]
23 | CGCAAGCAGCCAGUGAUGUUGGCUGCCUUGCGAGGACCGGUACGGCCGCCACUCGAAGGCAGCUACUGGUAAACCGUCUAACGGA [Atere] | 117 | 105 | 111 | 90.7 | 250
24 | UGACUGGACUGAAGGAGCGCUGAACUCCUAGUGAUGUUAGGAAAACGAGACAAAGUCUCGAAGCAGGUAGGUCGCAGUCUAGUCU | 138 | 101 | 112 | 138 | 115
25 | CGAGUGAUGUUCGUUCGUUUAUUUCGUUGACAGGAUAUGCGGAAACGCAGAAGGGUCACCUUUGAGUUAACGGAAUUUACGUUAU [Ex FMN A 27] | 614 | 487 | 587 | 552 | 546
26 | ACACUAUCGUCAUAGACGGUAGUGAAAAGUGAGGAUAUGAGUGAUGUUAGAAGGCACUAAGACUGUAUCGAAUAGAUACAGUCAA [FmnA 4 #K4BetweenAptamer #OpenEnded] | 803 | 262 | 384 | 292 | 349
27 | AGAUGUCUCUGGGAUACCAGUCGGAGUCUCAGGGCUCGGAGUGAUGUUCUGGGAUGUUUCGGCCCUUGGCAGCCCUGGGACUCCC [#2 Exclusion - Theophylline B Attempt #27 (HarryS)] | 724 | 514 | 649 | 740 | 542
28 | UUUGGAAGCGGUGUUGAUUAGGGAGCGGAAGGAGCGCCGAUUAUGGCAGGUAGGUCGCCGGAAUGUAGUGAUGUUGCAUAGAGGU [ExArgA.X] | 185 | 130 | 240 | 273 | 128
29 | CCCAAAAUAUGCAGUGAUGUUGCAACCGAUACCAGUAUCGAAAGAUACCCUUGGCAGCGGAAAACCGCUACGUAAUUUAAAAGGG [Ex Theophylline A K4 17] | 308 | 318 | 311 | 603 | 254
30 | GGGCUAUAGUGAUGUUAUUGUCUAAACGAUACCAGUUCACCCGUGAACCCUUGGCAGCGUGGUGUAACCUAUCCUCGUUGCACUG [theeternabot_sameState_KL_Theo_A_28] | 640 | 595 | 744 | 523 | 554
31 | UUAUACAACUGAAGGAGCGCCAGUGAUGUUGGCGUGACGACUGCUUCCUUCGCCGAGUCCUGGCAGGUAGGUCGCAGUUGCUGAA [Oratgere] | 82.6 | 97.2 | 113 | 99 | 94.8
32 | GUGCAGUGAUGUUGCACGAGGAAAGACGAUACCAGCCGUAAAUAAGGCCCUUGGCAGCGUAGGCUAGCAUAAAGUAUGCCAGUCU [Geleerra] | 117 | 112 | 121 | 113 | 96.5
33 | AAUAUAGUGAUGUUAUAUAAGAAGGAGUUACGAGGACCGGUACGGCCGCCACUCGAAACGAGUGAGGAUUUGGGAGAUUGGGUUU [SSTryptA.M] | 493 | 443 | 474 | 324 | 389
34 | AGACUACCACACUGUCAAUAGACAGUGUACUAGGAUAUGCUGAUAAGCAGAAGGAGUGAUGUUCCUUGGUAGUCAAUAAAAUAAU [FmnAX 13 U28+U67] | 357 | 237 | 258 | 268 | 238
35 | AGUUCUUGCCGAAGGAGCGAGGCAGAGUGAUGUUCUGCAAAGGUCGAAAGACCUUAACUGCCUCAGGUAGGUCGCGGCAUGAACA [KL-XARG-B23] | 622 | 351 | 624 | 602 | 580
36 | AAACGUUGGUCGGAUACCAGUUAGACCGAUAAGGUCAAAACUGGAGUGAUGUUCCCAAAUAACCCUUGGCAGCCGACCGACGAAA [MAT - Same State Theophlline B - Mod of Eli - D12] | 318 | 126 | 214 | 219 | 213
37 | UUUAUAAUGUCGGCCGCCACUGGAUUAAUAUUUGUAUAAUCUAGUUCUAAGUGAUGUUUAGAGUCCAGGACCGGGACAUUUGUUA [#09 K4 Tryptophan B Exclusion] | 395 | 282 | 300 | 311 | 212
38 | CAUACGCAUGGAGGAUAUGAGAUUUCUCAUAUUAUUUAAUAUUCUCAGUGAUGUUGAGAAUUUAACUCAGAAGGCCAUGUGUAUG [Ex FMN B 5] | 316 | 149 | 156 | 154 | 152
39 | GCAGUGAUGUUGCGCAGGUACAGUGGAGUGCGAGGACCGGUACGGCCGCCACUCGUACAGAACUAGCUAAUGUAUGGAUAGGUGA [#11 K4 Tryptophan A Same State] | 354 | 329 | 368 | 470 | 312
40 | UCGGCAGUGAACGAUACCAGCGUCACGUGGCUGGUGGUCACAUGAGUGAUGUUCAUGUAACGCCCUUGGCAGCGUGCGCGUACCG [KL-XTheo-B11] | 113 | 98.1 | 107 | 94.7 | 103
41 | AAUCAAUACAGAAGGAGCGUGACAAUUACUAUUGAUUCAGGAGCUAGUGAUGUUAGCAUUUCACAGGUAGGUCGCUGUACAUUUA [JR_SSArginiB_Sub013] | 165 | 203 | 201 | 213 | 153
42 | AAAAUAAACCAGUGAUGUUGGUGUCCAGAUACCAGCGAUAAUCAUCGCCCUUGGCAGCUGCGGACGUACAAAAUAAGUACGUCCU [MatMod 12 - Jieux - Same State - Theophylline A] | 665 | 475 | 707 | 399 | 567
43 | UACUAUAUUCUGUCGUUUUUAUUAGUUUGUCAGGAUAUCGUUUAUUCGAGAAGGGACACUGUCUAGUGAUGUUAGACAUUUCUUU [#04 K4 FMN A Exclusion] | 68.3 | 90.7 | 88.5 | 87 | 75.5
